This is an account of results in PMC6211762.

In this assay the target is Macrobrachium rosenbergii nodavirus (MrNV) capsid protein, recombinant, assembled into virus-like particles (Macrobrachium rosenbergii nodavirus). The assay can be described thus: cryo-EM structure; MrNV VLPs at approximately 0.2 mg/ml, vitrified on thin continuous carbon films; Titan Krios; icosahedral reconstruction at 3.3 Å from 40,883 particles; atomic model of the asymmetric unit.

In general, stoichiometry N refers to a count of units in the complex or per binding partner. On to “Macrobrachium rosenbergii nodavirus (MrNV) capsid protein, recombinant, assembled into virus-like particles (natural protein)”, for which the stoichiometry N came to 180.
